This note sets out measurements from US9150632B2 (Indiana University Research and Technology Corporation, priority 2009, dated 2015).

The conditions of series [1]: pH 7.
The nature of series [2]: Body weight, body composition and food intake in diet-induced obesity (DIO) mice. In kind it is in vivo. The settings on record: each day for one week at 50 nmol/kg s.c. As to the method:
[…] 6 mice per group with initial average body weight of 44 g were tested. Body weight, body composition, food intake, and blood glucose levels were determined periodically.
Body weight was measured before injection and at 1, 3, 5, and 7 days post-injection.
Changes in body weight of and food intake by the mice were measured 0, 1, 3, 5, 7, 8, 10, 12, and 14 days after injection. Blood glucose levels of the mice were monitored throughout the 14 days. Glucose tolerance tests were performed by injecting a 25% glucose in saline solution 1 hour or 24 hours after administration of the acylated or pegylated peptide and measuring blood glucose levels at −60, 0, 15, 30, 60, or 120 min after the glucose injection.
The acylated glucagon analogs were as follows:
C57BI/6 mice were obtained from Jackson Laboratories and fed a diabetogenic diet from Research Diets, a high sucrose diet with 58% kcal from fat. Mice were single or group-housed on a 12:12-h light-dark cycle at 22° C. with free access to food and water. All studies were approved by and performed according to the guidelines of the Institutional Animal Care and Use Committee of the University of Cincinnati.
Whole body composition (fat and lean mass) was measured using NMR technology (EchoMRI, Houston, Tex.).
The peptides were administered daily for two weeks to 11 groups of 8 C57Bl/6 mice by subcutaneous injection at a dose of 10 or 30 nmol/kg. […]

No end group written: not given here.

In the case of “Glucagon, Cys17PEG5K: Glucagon Cys17(1-29) reacted with mPEG-Mal-5000”, in series [1], the “Percent Soluble” value is 94%.
“Peptide U: SEQ ID NO: 1 with Glu16, Gln17, Ala18, Lys20, Glu21, Ile23, Cys24 with 20-kd pegylation, no AIB2, no lactam (HSQGTFTSDYSKYLDEQAAKEFIC(PEG 20 kDa)WLMNT)” gave a body weight lowering in series [2] of -13.71 ± 0.92 g.
